Source: patent publication US20250002610A1 (Genmab, published 2025)

Columns and labels:
[1] = molecular target: T1, human DR4 (Death Receptor 4), cell surface expressed on human tumor cell lines (human, UniProt O00220 24-468); assay: flow cytometry on MDA-MB-231 cells (endogenous DR4), antibody incubated at 37 °C, gMFI PE
T1 construct: also called TNFRSF10A; TRAIL-R1
T1 sequence: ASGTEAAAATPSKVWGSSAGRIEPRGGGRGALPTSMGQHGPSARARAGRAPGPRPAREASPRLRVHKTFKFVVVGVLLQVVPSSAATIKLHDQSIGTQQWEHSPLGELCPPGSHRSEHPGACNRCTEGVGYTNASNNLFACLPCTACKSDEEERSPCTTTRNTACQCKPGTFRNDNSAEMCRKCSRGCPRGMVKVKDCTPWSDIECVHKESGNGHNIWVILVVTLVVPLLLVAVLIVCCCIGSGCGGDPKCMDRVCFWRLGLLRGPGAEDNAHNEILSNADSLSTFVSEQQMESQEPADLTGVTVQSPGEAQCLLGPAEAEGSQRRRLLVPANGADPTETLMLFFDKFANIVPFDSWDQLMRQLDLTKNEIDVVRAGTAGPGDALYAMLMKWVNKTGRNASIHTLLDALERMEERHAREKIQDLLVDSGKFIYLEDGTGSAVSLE
Procedure: Binding of C1q to membrane-bound BisG1-FAPα-FERL/DR4-FERR was assessed by flow cytometry. MDA-MB-231 cells were harvested as described in Example 3, plated (50,000 cells/well) in round-bottom 96-well plates and incubated with a concentration range of BisG1-FAPα-FERL/DR4-FERR or IgG1-b12-FER control antibody (0.003-30 μg/mL in threefold increments) at 37° C. for 30 min. To assess C1q binding, normal human serum (NHS) (Sanquin, final concentration 20%) was added as a source of C1q and the mixture was incubated at 4° C. for 45 min. Cells were washed twice with FACS buffer (PBS [Lonza, Cat. #BE17-517Q] supplemented with 0.1% [w/v] BSA [Roche, Cat. #10735086001] and 0.02% [w/v] sodium azide [NaN3; bioWORLD, Cat. #41920044-3]) and subsequently incubated with FITC-conjugated rabbit anti-human C1q antibody (DAKO, Cat. #F0254; 1:100 in FACS buffer) at 4° C. for 30 min, protected from light. Within the same experiment, binding of the DR4-antibodies to the MDA-MB-231 cells was confirmed in parallel samples after the incubation with serial dilutions of the tested antibodies.

[2] = molecular target: T2, rat FAPα on Expi293F cells (rat (Rattus norvegicus), UniProt P97321 1-761 (mouse entry)); assay: flow cytometry on Expi293F cells transiently expressing rat FAPα, gMFI PE
T2 chain: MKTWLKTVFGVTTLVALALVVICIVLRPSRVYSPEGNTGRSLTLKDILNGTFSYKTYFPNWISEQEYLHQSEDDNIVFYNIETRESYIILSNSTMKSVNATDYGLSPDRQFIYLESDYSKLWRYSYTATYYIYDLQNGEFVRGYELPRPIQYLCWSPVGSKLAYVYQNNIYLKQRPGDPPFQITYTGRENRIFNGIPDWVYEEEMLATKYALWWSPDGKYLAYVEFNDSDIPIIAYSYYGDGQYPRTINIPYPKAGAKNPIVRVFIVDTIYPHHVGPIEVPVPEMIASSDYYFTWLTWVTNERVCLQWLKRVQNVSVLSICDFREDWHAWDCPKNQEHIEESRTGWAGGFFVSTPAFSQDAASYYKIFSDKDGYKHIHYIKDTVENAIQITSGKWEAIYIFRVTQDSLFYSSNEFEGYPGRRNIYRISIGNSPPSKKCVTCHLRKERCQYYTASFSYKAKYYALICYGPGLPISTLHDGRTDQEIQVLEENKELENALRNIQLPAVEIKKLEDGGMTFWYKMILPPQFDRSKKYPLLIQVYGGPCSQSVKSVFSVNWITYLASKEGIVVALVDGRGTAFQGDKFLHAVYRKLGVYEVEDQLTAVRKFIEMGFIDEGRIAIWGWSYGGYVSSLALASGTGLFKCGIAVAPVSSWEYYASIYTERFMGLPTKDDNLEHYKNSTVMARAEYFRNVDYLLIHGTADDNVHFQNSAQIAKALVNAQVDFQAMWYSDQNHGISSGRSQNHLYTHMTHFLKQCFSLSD
Procedure: Binding of BisG1-FAPα-FERL/DR4-FERR, BisG1-FAPα-FEAL/b12-FEAR and IgG1-FAPα-FERL to FAPα of species commonly used for nonclinical toxicology studies was assessed by flow cytometry using Expi293F cells transiently expressing FAPα from different animal species. IgG1-b12 was included as negative control.
Expi293F cells expressing recombinant FAPα from various species (human, cynomolgus monkey, dog, pig, rat or mouse) were seeded (20,000 cells/well) in 96-Well round bottom plates (Greiner Bio-one, Cat #650101). Antibody dilutions were prepared using FACS buffer, consisting of PBS (Capricorn Scientific, Cat #PBS-10XA, diluted to 1×PBS in distilled water)+1% BSA (Roche, Cat #10735086001)+0.02% Sodium Azide (Bio-World, Cat #41920044-3). Plates were centrifuged, supernatant was removed, and cells were resuspended in 100 μL of antibody dilutions (concentration range 30-0.00017 μg/mL with three-fold serial dilutions using FACS buffer) of BisG1-FAPα-FERL/DR4-FERR, BisG1-FAPα-FEAL/b12-FEAR, IgG1-FAPα-FERL and IgG1-b12 and incubated for 30 min at 4° C. […] Antibody binding to viable cells (gMFI of PE on TO-PRO-3 negative cells) was analyzed by flow cytometry on a FACS Celesta and FACS_Diva software (first two experiments) or iQue® 3 and FlowJo software (last experiment). gMFI was determined and visualized using GraphPad Prism. Binding curves were analyzed using nonlinear regression analysis. […]

Row | EC50 (read off the curve) [2] | Binder | EC50 (read off the curve) [1]
1 |  | BisG1-FAPα-FERL/DR4-FERR (bispecific antibody, human IgG1, kappa, lambda, Human IgG1 bispecific made by controlled Fab-arm exchange of IgG1-FAPα-FERL and IgG1-DR4-FERR; monovalent for FAPα and for DR4; also called GEN1057) heavy 1: EVQLLESGGGLVQPGGSPRLSCEASGFTFSSYALSWVRQAPGKGLEWVSAISGSGGGRYYADSVKGRFTISRDNSKNTLFLQMNSLRAEDTAVYYCAKEGYSSSGTYWDHWGQGTLVTVSSASTKGPSVFPLAPSSKSTSGGTAALGCLVKDYFPEPVTVSWNSGALTSGVHTFPAVLQSSGLYSLSSVVTVPSSSLGTQTYICNVNHKPSNTKVDKRVEPKSCDKTHTCPPCPAPEFERGPSVFLFPPKPKDTLMISRTPEVTCVVVDVSHEDPEVKFNWYVDGVEVHNAKTKPREEQYNSTYRVVSVLTVLHQDWLNGKEYKCKVSNKALPAPIEKTISKAKGQPREPQVYTLPPSREEMTKNQVSLTCLVKGFYPSDIAVEWESNGQPENNYKTTPPVLDSDGSFLLYSKLTVDKSRWQQGNVFSCSVMHEALHNHYTQKSLSLSPG light 1: AIQMTQSPSSVSASVGDRVTITCRASQGVSSWLAWYQQKPGRAPKLLIYVASTLQSGVPSRFSGSGSGTDFTLTINSLQPEDFATYYCQQANSFPPTFGQGTRLEMKRTVAAPSVFIFPPSDEQLKSGTASVVCLLNNFYPREAKVQWKVDNALQSGNSQESVTEQDSKDSTYSLSSTLTLSKADYEKHKVYACEVTHQGLSSPVTKSFNRGEC heavy 2: QVQLQESGPGLVKPSGTLSLTCAVSGGSISSYSWWSWIRQPPGKGLEWIGELYHSGSTNYNPSLKSRVTISVDKSKNQFSLKLRSVTAADTAVYYCVRGVATIDYWGQGTLVTVSSASTKGPSVFPLAPSSKSTSGGTAALGCLVKDYFPEPVTVSWNSGALTSGVHTFPAVLQSSGLYSLSSVVTVPSSSLGTQTYICNVNHKPSNTKVDKRVEPKSCDKTHTCPPCPAPEFERGPSVFLFPPKPKDTLMISRTPEVTCVVVDVSHEDPEVKFNWYVDGVEVHNAKTKPREEQYNSTYRVVSVLTVLHQDWLNGKEYKCKVSNKALPAPIEKTISKAKGQPREPQVYTLPPSREEMTKNQVSLTCLVKGFYPSDIAVEWESNGQPENNYKTTPPVLDSDGSFFLYSRLTVDKSRWQQGNVFSCSVMHEALHNHYTQKSLSLSPG light 2: QSALTQPPSASGSPGQSVTISCTGTSSDVGGYNFVSWYQQDPGKAPKLLIYEVTKRPSGVPDRFSGSKSGNTASLTVSGLQAEDEADYYCSSYAGSNNVMFGGGTKLTVLGQPKAAPSVTLFPPSSEELQANKATLVCLISDFYPGAVTVAWKADSSPVKAGVETTTPSKQSNNKYAASSYLSLTPEQWKSHRSYSCQVTHEGSTVEKTVAPTECS | ~0.5 µg/mL
2 | ~0.2 µg/mL | IgG1-FAPα-FERL (antibody, Bivalent monoclonal IgG1 kappa) heavy: EVQLLESGGGLVQPGGSPRLSCEASGFTFSSYALSWVRQAPGKGLEWVSAISGSGGGRYYADSVKGRFTISRDNSKNTLFLQMNSLRAEDTAVYYCAKEGYSSSGTYWDHWGQGTLVTVSSASTKGPSVFPLAPSSKSTSGGTAALGCLVKDYFPEPVTVSWNSGALTSGVHTFPAVLQSSGLYSLSSVVTVPSSSLGTQTYICNVNHKPSNTKVDKRVEPKSCDKTHTCPPCPAPEFERGPSVFLFPPKPKDTLMISRTPEVTCVVVDVSHEDPEVKFNWYVDGVEVHNAKTKPREEQYNSTYRVVSVLTVLHQDWLNGKEYKCKVSNKALPAPIEKTISKAKGQPREPQVYTLPPSREEMTKNQVSLTCLVKGFYPSDIAVEWESNGQPENNYKTTPPVLDSDGSFLLYSKLTVDKSRWQQGNVFSCSVMHEALHNHYTQKSLSLSPG light: AIQMTQSPSSVSASVGDRVTITCRASQGVSSWLAWYQQKPGRAPKLLIYVASTLQSGVPSRFSGSGSGTDFTLTINSLQPEDFATYYCQQANSFPPTFGQGTRLEMKRTVAAPSVFIFPPSDEQLKSGTASVVCLLNNFYPREAKVQWKVDNALQSGNSQESVTEQDSKDSTYSLSSTLTLSKADYEKHKVYACEVTHQGLSSPVTKSFNRGEC | 
